Source: article PMC3477141, “Repositioning Antimicrobial Agent Pentamidine as a Disruptor of the Lateral Interactions of Transmembrane Domain 5 of EBV Latent Membrane Protein 1” (PLoS ONE, 2012)
Where no end group is shown, it is not given here.

B1: LMP-1 TMD-5 peptide KKKK-TMD-5-KKKK (peptide)
peptide: KKKKWQLLAFFLAFFLDLILLIIALYLKKKK
notes: lysine flank added to increase the solubility of the peptide; transmembrane domain 5 (TMD-5) of latent membrane protein 1 (LMP-1) of Epstein-Barr virus; source: synthetic peptide, purified by reverse phase HPLC
B2: coumarin labeled LMP-1 TMD-5 peptide (peptide)
peptide: {7‑hydroxycoumarin‑3‑carboxylic acid}-GGGPGWQLLAFFLAFFLDLILLIIALYLGPGG
notes: flank between the coumarin label and TMD-5; transmembrane domain 5 (TMD-5) of latent membrane protein 1 (LMP-1) of Epstein-Barr virus; C-terminal flank; also called coumarin labeled TMD-5; source: synthetic peptide, labeled with coumarin on the resin, purified by reverse phase HPLC

Columns and labels:
[1] = target: the molecule itself; test: Bis-Tris SDS-PAGE; 12% NuPAGE Bis-Tris gel, MES SDS running buffer, room temperature; 200 uM TMD-5 peptide in Laemmli sample buffer overnight, heated at 90 C for 7 min; Coomassie stain; pentamidine to peptide ratios 0 to 20
[2] = target: the molecule itself; test: coumarin fluorescence dequenching (self-quenching) assay; 100 nM coumarin labeled TMD-5 in 50 mM HEPES pH 7.4 with 150 uM C14 betaine micelles, room temperature overnight; excitation 360 nm, emission 430 nm; with or without 64 uM pentamidine

Protein	stoichiometry N [1]	binding result [2]
B1	3	–
B2	–	binds
